# B1: 22115 (protein)
# chain: MALPVTALLLPLALLLHAARPQVQLVESGGGLVQPGGSLRLSCAASGFTFTNHAMSWVRQAPGKGLELVSSISGNGRTTYYADSVKGRFTISRDISKNTLDLQMNSLRAEDTAVYYCAKDGGETLVDSRGQGTLVTVSSLEDLKNVFPPEVAVFEPSKAEIAHTQKATLVCLATGFYPDHVELSWWVNGKEVHSGVCTDPQPLKEQPALNDSRYCLSSRLRVSATFWQNPRNHFRCQVQFYGLSENDEWTQDRAKPVTQIVSAEAWGRADCGITSASYHQGVLSATILYEILLGKATLYAVLVSALVLMAMVKRKDSRGRAKRSGSGATNFSLLKQAGDVEENPGPTSTMALPVTALLLPLALLLHAARPQVQLVESGGGLVQPGGSLRLSCAASGFTFTNHAMSWVRQAPGKGLELVSSISGNGRTTYYADSVKGRFTISRDISKNTLDLQMNSLRAEDTAVYYCAKDGGETLVDSRGQGTLVTVSSLESGGGGSFEQVQLQQPGAELVKPGASVKMSCKASGYAFSSYWINWMKQKPGQGLEWIGQIYPGDGDTNYNGKFKGRATLTADTSSSTAYMQLSSLTSEDSAVYFCARSITTVVGCAMDYWGQGTSVTVSSTRIQNPDPAVYQLRDSKSSDKSVCLFTDFDSQTNVSQSKDSDVYITDKCVLDMRSMDFKSNSAVAWSNKSDFACANAFNNSIIPEDTFFPSSDVPCDVKLVEKSFETDTNLNFQNLSVIGFRILLLKVAGFNLLMTLRLWSSRAKRSGSGVKQTLNFDLLKLAGDVESNPGPSRGHMTEYKPTVRLATRDDVPRAVRTLAAAFADYPATRHTVDPDRHIERVTELQELFLTRVGLDIGKVWVADDGAAVAVWTTPESVEAGAVFAEIGPRMAELSGSRLAAQQQMEGLLAPHRPKEPAWFLATVGVSPDHQGKGLGSAVVLPGVEAAERAGVPAFLETSAPRNLPFYERLGFTVTADVEVPEGPRTWCMTRKPGA
# B2: 22161 (protein)
# chain: MALPVTALLLPLALLLHAARPACEVQLLESGGGLIQPGGSLRLSCAASGFTFSSHAMTWVRQAPGKGLEWVSAISGSGDYTHYADSVKGRFTISRDNSKNTVYLQMNSLRAEDSAVYYCAKDEDGGSLLGHRGQGTLVTVSSGTGGGGSGGGGSGGGGSEFDIQMTQSPSSLSASVGDRVTITCKASDHINNWLAWYQQKPGQAPKLLIYGATTLETGVPSRFSGSGSGTDYTLTISSLQPEDFATYYCQQSWNTPWTFGQGTKLEIKRLEDLKNVFPPEVAVFEPSEAEISHTQKATLVCLATGFYPDHVELSWWVNGKEVHSGVCTDPQPLKEQPALNDSRYCLSSRLRVSATFWQNPRNHFRCQVQFYGLSENDEWTQDRAKPVTQIVSAEAWGRADCGFTSESYQQGVLSATILYEILLGKATLYAVLVSALVLMAMVKRKDSRGRAKRSGSGATNFSLLKQAGDVEENPGPTSATMDWIWRILFLVGAATGAHSGPEVQLVESGGGLVQAGGSLRLSCAASGRTFSMGWFRQAPGKEREFVAAITYSGGSPYYADSVKGRFTISRDNAKNTVYLQMNSLKPEDTAVYYCAANPTYGSDWNAENWGQGTQVTVSSGSGGGGSGGGGSGGGGSFEQVQLQQPGAELVKPGASVKMSCKASGYAFSSYWINWMKQKPGQGLEWIGQIYPGDGDTNYNGKFKGRATLTADTSSSTAYMQLSSLTSEDSAVYFCARSITTVVGCAMDYWGQGTSVTVSSTRIQNPDPAVYQLRDSKSSDKSVCLFTDFDSQTNVSQSKDSDVYITDKCVLDMRSMDFKSNSAVAWSNKSDFACANAFNNSIIPEDTFFPSPESSCDVKLVEKSFETDTNLNFQNLSVIGFRILLLKVAGFNLLMTLRLWSSRAKRSGSGVKQTLNFDLLKLAGDVESNPGPSRGHMTEYKPTVRLATRDDVPRAVRTLAAAFADYPATRHTVDPDRHIERVTELQELFLTRVGLDIGKVWVADDGAAVAVWTTPESVEAGAVFAEIGPRMAELSGSRLAAQQQMEGLLAPHRPKEPAWFLATVGVSPDHQGKGLGSAVVLPGVEAAERAGVPAFLETSAPRNLPFYERLGFTVTADVEVPEGPRTWCMTRKPGA
# B3: 22139 (protein)
# chain: MALPVTALLLPLALLLHAARPACEVQLLESGGGLIQPGGSLRLSCAASGFTFSSHAMTWVRQAPGKGLEWVSAISGSGDYTHYADSVKGRFTISRDNSKNTVYLQMNSLRAEDSAVYYCAKDEDGGSLLGHRGQGTLVTVSSGTGGGGSGGGGSGGGGSEFDIQMTQSPSSLSASVGDRVTITCKASDHINNWLAWYQQKPGQAPKLLIYGATTLETGVPSRFSGSGSGTDYTLTISSLQPEDFATYYCQQSWNTPWTFGQGTKLEIKRLEADVSPKPTIFLPSIAETKLQKAGTYLCLLEKFFPDVIKIHWQEKKSNTILGSQEGNTMKTNDTYMKFSWLTVPEKSLDKEHRCIVRHENNKNGVDQEIIFPPIKTDVITMDPKDNCSKDANDTLLLQLTNTSAYYMYLLLLLKSVVYFAIITCCLLRRTAFCCNGEKSRAKRSGSGATNFSLLKQAGDVEENPGPTSMDWIWRILFLVGAATGAHSGPQVQLQESGGGLAQAGGSLRLSCAASGRTFSMGWFRQAPGKEREFVAAITYSGGSPYYASSVRGRFTISRDNAKNTVYLQMNSLKPEDTAVYYCAANPTYGSDWNAENWGQGTQVTVSSGSGGGGSGGGGSGGGGSFEQVQLQQPGAELVKPGASVKMSCKASGYAFSSYWINWMKQKPGQGLEWIGQIYPGDGDTNYNGKFKGRATLTADTSSSTAYMQLSSLTSEDSAVYFCARSITTVVGCAMDYWGQGTSVTVSSTRPHTKPSVFVMKNGTNVACLVKEFYPKDIRINLVSSKKITEFDPAIVISPSGKYNAVKLGKYEDSNSVTCSVQHDNKTVHSTDFEVKTDSTDHVKPKETENTKQPSKSCHKPKAIVHTEKVNMMSLTVLGLRMLFAKTVAVNFLLTAKLFFLRAKRSGSGVKQTLNFDLLKLAGDVESNPGPSRGHMTEYKPTVRLATRDDVPRAVRTLAAAFADYPATRHTVDPDRHIERVTELQELFLTRVGLDIGKVWVADDGAAVAVWTTPESVEAGAVFAEIGPRMAELSGSRLAAQQQMEGLLAPHRPKEPAWFLATVGVSPDHQGKGLGSAVVLPGVEAAERAGVPAFLETSAPRNLPFYERLGFTVTADVEVPEGPRTWCMTRKPGA
# B4: 22141 (protein)
# chain: MALPVTALLLPLALLLHAARPACEVQLLESGGGLIQPGGSLRLSCAASGFTFSSHAMTWVRQAPGKGLEWVSAISGSGDYTHYADSVKGRFTISRDNSKNTVYLQMNSLRAEDSAVYYCAKDEDGGSLLGHRGQGTLVTVSSGTGGGGSGGGGSGGGGSEFDIQMTQSPSSLSASVGDRVTITCKASDHINNWLAWYQQKPGQAPKLLIYGATTLETGVPSRFSGSGSGTDYTLTISSLQPEDFATYYCQQSWNTPWTFGQGTKLEIKRLEGQPKANPTVTLFPPSSEELQANKATLVCLISDFYPGAVTVAWKADGSPVKAGVETTKPSKQSNNKYAASSYLSLTPEQWKSHRSYSCQVTHEGSTVEKTVAPTECSPIKTDVITMDPKDNCSKDANDTLLLQLTNTSAYYMYLLLLLKSVVYFAIITCCLLRRTAFCCNGEKSRAKRSGSGATNFSLLKQAGDVEENPGPTSATMDWIWRILFLVGAATGAHSGPQVQLQESGGGLAQAGGSLRLSCAASGRTFSMGWFRQAPGKEREFVAAITYSGGSPYYASSVRGRFTISRDNAKNTVYLQMNSLKPEDTAVYYCAANPTYGSDWNAENWGQGTQVTVSSGSGGGGSGGGGSGGGGSFEQVQLQQPGAELVKPGASVKMSCKASGYAFSSYWINWMKQKPGQGLEWIGQIYPGDGDTNYNGKFKGRATLTADTSSSTAYMQLSSLTSEDSAVYFCARSITTVVGCAMDYWGQGTSVTVSSTRASTKGPSVFPLAPSSKSTSGGTAALGCLVKDYFPEPVTVSWNSGALTSGVHTFPAVLQSSGLYSLSSVVTVPSSSLGTQTYICNVNHKPSNTKVDKRVEPKSCEVKTDSTDHVKPKETENTKQPSKSCHKPKAIVHTEKVNMMSLTVLGLRMLFAKTVAVNFLLTAKLFFLRAKRSGSGVKQTLNFDLLKLAGDVESNPGPSRAHMTEYKPTVRLATRDDVPRAVRTLAAAFADYPATRHTVDPDRHIERVTELQELFLTRVGLDIGKVWVADDGAAVAVWTTPESVEAGAVFAEIGPRMAELSGSRLAAQQQMEGLLAPHRPKEPAWFLATVGVSPDHQGKGLGSAVVLPGVEAAERAGVPAFLETSAPRNLPFYERLGFTVTADVEVPEGPRTWCMTRKPGA
# Experiments:
# Assay type in all cases: cell-based
# [1] = tested on: RS;411; assay: JNG assay, co-culture with RS;411 cells; details: co-culture with RS411
# Method: Cellular supernatant is collected and assayed for the induction of cytokines (e.g., IL2).
# JNG (Jurkat cells expressing EGFP under an NFAT promoter) were infected with lentiviral vectors encoding different single chain and multi-chain SARs by spinfection in the presence of 8 µg/ml of Polybrene® (Sigma, Catalog no. H9268). The Jurkat-NFAT-GFP cells are engineered in such a way that the IL-2 promoter, which carries NFAT binding sites, is cloned upstream of the GFP gene. These cells have been used to study signaling via TCR and CAR. The different SARs were stably expressed in Jurkat NFAT-GFP cells by lentiviral mediated gene transfer, followed by selection with puromycin or blasticidin. No drug selection was used in case the construct lacked an antibiotic resistance gene. The SAR-expressing Jurkat-NFAT-GFP cells were cocultured with the target cells at E:T ratio of approximately 1:2 for approximately 4 hours to 18 hours. When the interaction between SIRs and their target antigen results in activation of the NFAT pathway, GFP expression is induced. […] GFP expression was monitored by FACS analysis. The Jurkat-NFAT-GFP (parental) cells were used as control. The structure of different constructs can be determined based on their names. […] The sequence of the other constructs in the table can be similarly determined from their names and by referring to the different Tables of this disclosure that provide the names and SEQ ID NO of the different modules. Alternatively, the composition and modular architecture of the different SAR constructs can be determined from their sequences by bioinformatics tools, including using nucleic acid and amino acids homology searches. A SAR is considered positive in the assay in case the SAR expressing Jurkat-NFAT-GFP cells show greater % GFP positive cells when cultured with the target cell line as compared to parental Jurkat-NFAT-GFP cells. […] In general, the number +/-, +, 2+, 3+, 4+, 5+ refer to approximately 5%, 10%, 20%, 30%, 40% and 50% GFP positive cells. The % of GFP induction in the above assay is dependent not only the relative strength of the SAR but also, among other factors, on the relative level of expression of the SAR in the JNG cells and the relative level of expression of the target antigen in the target cell line. To control for the difference in gene transduction efficiency of the different SAR constructs, the experiment was conducted with JNG cells transduced with SAR constructs co-expressing a drug resistance gene (e.g., puromycin or PAC) followed by drug selection to generate a stable population of SAR-expressing cells. It is to be noted that the drug resistance gene (e.g., PAC) in the SAR constructs is optional and in vivo studies were conducted with SAR constructs lacking the PAC gene.
# [2] = tested on: RAJI cells; assay: JNG assay, co-culture with RAJI cells; details: JNG cells expressing construct, co-culture with Raji
# In short: (§1)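 Jurkat-NFAT-GFP (JNG) cells stably expressing SAR constructs via lentiviral transduction and puromycin/blasticidin selection were cocultured with target cells at E:T ~1:2 for ~4–18 h. NFAT-driven GFP was measured by FACS versus parental JNG cells; scores +/- to 5+ denote ~5–50% GFP-positive cells.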
# [3] = tested on: RAJI-CD19-KO cells; assay: JNG assay, co-culture with RAJI-CD19-KO cells; details: co-culture with Raji-CD19-KO
# In short: as §1
# [4] = tested on: Nalm6 cells; assay: JNG assay, co-culture with Nalm6 cells; details: co-culture with Nalm6
# In short: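 SAR-JNG (lentiviral spinfection, drug-selected) + target cells, E:T ≈1:2, ≈4–18 h; FACS for GFP; positivity = %GFP+ over parental JNG; grades +/- to 5+ ≈ 5–50% GFP+.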
Molecule,NFAT-GFP ASSAY: RS411 [1],NFAT-GFP ASSAY: Raji [2],NFAT-GFP ASSAY: Raji-CD19-KO [3],NFAT-GFP ASSAY: Nalm6 [4]
B1,"2+ (refer to approximately 5%, 10%, 20%, 30%, 40% and 50% GFP positive cells)",,,
B2,,"+/- (refer to approximately 5%, 10%, 20%, 30%, 40% and 50% GFP positive cells)","+/- (refer to approximately 5%, 10%, 20%, 30%, 40% and 50% GFP positive cells)","+/- (refer to approximately 5%, 10%, 20%, 30%, 40% and 50% GFP positive cells)"
B3,"2+ (refer to approximately 5%, 10%, 20%, 30%, 40% and 50% GFP positive cells)","2+ (refer to approximately 5%, 10%, 20%, 30%, 40% and 50% GFP positive cells)",,
B4,"4+ (refer to approximately 5%, 10%, 20%, 30%, 40% and 50% GFP positive cells)","4+ (refer to approximately 5%, 10%, 20%, 30%, 40% and 50% GFP positive cells)",,
